The text below walks through data of the DeepSol protein solubility set.

This data set is described as follows: soluble on expression in E. coli; label from the status in PepcDB or PDB records.
Take “MAGDPMNIQDAQPSTLREMIKQGKLTGHTSGMAKGYVQANVVILPSKCAYDFLLFCFRNPKTCPLLDVSEKGNKSFTKYGVTADISTEVAAYRIYQYGELIETRANVDDLYTDDMVSFLIGCSFTFEHALLEAGIPIRHLEENHNVPMYVTNIPANPSGQFKGNITVSMRPMTMTQAIKATEITTRFKNVHGTPIHIGNPTEIGITDLALPDFGEPVTINENEVPVFWGCGVTPQSVALDAKPDLMITHAPGHMFITDIPDSQLSDLEHHHHHH”: the “soluble on expression in E. coli” value is “soluble”.
As for “MLRISELKLPLDHTQEELADAVAGFLKAPADEVRGFTVFKRSYDARKGVMSLVYIIDVDVANEDKLFARFKGDRRVMPTPDTHYYYVAQAPESLKSRPVVVGFGPCGIFAALILAQMGFKPIVLERGKEVRQRTKDTWGLWRKSELNTESNVQYGEGGAGTFSDGKLYSQIKDPRHLGRKVLTEFVKAGAPEEILYLARPHIGTFRLVSMVENMRAEIIALGGEIRFEQRVDDLILDGDRVRGVKLADGGEVLSDHVVLALGHSARDTFQMLEKRGVYMEAKPFSVGVRIEHPQSLIDAARWGKYAGHPILGAADYKLVHHAGNGRAVYSFCMCPGGTVVAATSEEKRVVTNGMSQYSRNERNANSGFVVSISPEVDYPGGPLAGLDFQRELESKAYELGGGDYFAPAQLLGDFMAGKASTQLGSVEPSYKPGVTMTDLARILPDFCVEAMREAIPHFARQIRGYDLHDAVLTGLETRTSSPLRITRGEDFQSLNIKGLFPAGEGAGYAGGILSAGVDGIKVAEAVAKAMLGQLEHHHHHH”, the entry is “soluble”.
To “MNVLALDTSQRIRIGLRKGEDLFEISYTGEKKHAEILPVVVKKLLDELDLKVKDLDVVGVGIGPGGLTGLRVGIATVVGLVSPYDIPVAPLNSFEMTAKSCPADGVVLVARRARKGYHYCAVYLKDKGLNPLKEPSVVSDEELEEITKEFSPKIVLKDDLLISPAVLVEESERLFREKKTIHYYEIEPLYLQKSIAELNWEKKKRG” belongs “not soluble”; to “FNRRFILPELREAVRSVSADIVFLQEVHGEHHSHARRVKDWPTISQYEFLADSMWSDFAYGRNAVYPDGDHGNALLSKYPIIQHENLDVSIDGTEQRGLLHCILQVPDHGQVHAVCVHLGLFESHRRQQLKLLAQLMDRLPEGAPVIVAGDFNDWRQRADALLQGTGLHEVFVQRFGAPAKSFPARWPLLRLDRIYVRNATSHRPKVLSSRPWSHLSDHAPLAVEVTL”, “not soluble”.
To “MSTSQPREQFLLISALGPNPMELTTLLCRACVESRCAVVSSRLTRHGEFSALVLQISGSWDALARLEGSLPALTKRGDITLSMTRSNAHVTRAQALPYVAYVSAVYRPDILNELCQFFIDHNIELENLTCDTYQAPHTNTTMLNATITVTLPAGTQISWLRDQFLDFADALNLDALIEPWRPQHP” belongs “not soluble”; to “MYATFSALKKYGYAELSIQRIASELNFSKSTLYHHFSDKDDLLLSFFNFLLDELEQFCKSSSTNEPKKELLDFVDVLLDEGITQKEQSAKGEILAAYIELRSQAIHDTKYRERITRTDKRFVKQIAVIIDAGIDKGVFQPVEPEETAEFILAILNGILMQGSTRKRAPFQQLRQNLIEYIQTELFVESATRS”, “not soluble”; to “MQTKKAFLYVFNTMSDWEYGYLIAELNSGRYFKKDLAPLKVITVGANKEMITTMGGLRIKPDISLDECTLESKDLLILPGGTTWSEEIHQPILERIGQALKIGTIVAAICGATDALANMGYLDTRKHTSNNLEYTKMVCPNYKGEKFYELGPAVSDANLVTASGIAPLEFAMEVLKKIDVFTLDALHSWYNLNKTHKPEYFFQLMNSINK”, “not soluble”.
Turning to “MLRSKKMVLVGRKAPDFTAAAVLGNGEIVDNFNFAEFTKGKKAVVFFYPLDFTFVCPSELIAFDNRYEDFLAKGVEVIGVSIDSQFSHNAWRNTAVENGGIGQVKYPLVADVKHEICKAYDVEHPEAGVAFRGSFLIDEEGMVRHQVVNDLPLGRNIDEMLRMVDALNFHQTHGEVCPAQWEAGKAGMEASPKGVAAFLSQYSADLK”, the “soluble on expression in E. coli” value is recorded as “not soluble”.
As for “MAHHHHHHMRMRPFTASTAATPTAAGAAPASSMSSPAPLRKARESATGSAGSYFLGSSTFSVYEEMARQLREEGWRRKTEAAIATADFILGDRFRIPYTLLRVERMARSSWFGGTRWVNYFEGSHRLTLKAAMVQLMKEVDTHWATWLPESYAVGGDQLKKADERRALLEALAAAGDDDAVWIVKPSSGAKGRHILLLRASAVPEWLERLPESSKSMYVVQRYVDRPLLLSNGRKFDIRVWALLVSPYSIYAYTQVSCRTASEPYDLSDITNTHVHLTNHCLQKDAAHFGEYEEENEMWLPQLQSYLTSIGKPADLLETRVLPAIKELLVRTLLAVMPEMAVPATEAYKCFQLFGYDMILTEEADVRLLEINGSPGVAERFLTPLVRSMRELLGAGPKDGTGSTTTTRNCDNTSHEGFSENGSSSNSGCASPTSASSSCPGRRRTSHAFSAATSATGATRNWRLEDEGFVLLWRRGDAVPPGLVDVC”, the entry is “not soluble”; as for “MSVSLEQTLGFRIKVTNVLDVVTEGRLYSFNSSNNTLTIQTTKKNQSPQNFKVIKCTFIKHLEVIGDKPSFNSFKKQQIKPSYVNVERVEKLLKESVIASKKKELLRGKGVSAEGQFIFDQIFKTIGDTKWVAKDIIILDDVKVQPPYKVEDIKVLHEGSNQSITLIQRIVERSWEQLEQDDGRKGG”, “soluble”.
As for “MASHMERDPQVAGLKVPPHSIEAEQSVLGGLMLDNERWDDVAERVVADDFYTRPHRHIFTEMARLQESGSPIDLITLAESLERQGQLDSVGGFAYLAELSKNTPSAANISAYADIVRER”, the entry is “soluble”; as for “MKRFFALVHKDEDSAFGVQFPDFEGLFSAADEEENLIINATEALQLYCEDMDTVPVPLKFEEVIQQKAVKKALSEGAFLIQVPFIENDSEVVRTNISIERGLLRAIDNCAQERGLTRSAFLATAARHELNI”, “not soluble”; as for “MDVTALCHKIFLHIHGLISADRYSLFLVCEDSSKDKFLISRLFDVAEGSTLEEASNNCIRLEWNKGIVGHVAAFGEPLNIKDAYEDPRFNAEVDQITGYKTQSILCMPIKNHREEVVGVAQAINKKSGNGGTFTEKDEKDFAEYLAFCGEVLHNAQLYETSLLENKRNLEHHHHHH”, “soluble”.
Turning to “WLEPYLAGVTSVKGLQSVSVLQALKHYLGWELSQQLDEWLPTHHLLPTGNHKKIRYQLGMEPTLSVRMQEVFGEQSSPRVAKGTRAVVMELLSPAQRPLQVTRDLASFWAGAYKEVQKEMKGRYPKHVWPDDPANHVATSKTKRQLNA”, the “soluble on expression in E. coli” value was “not soluble”.
To “MHHHHHHSSGVDLGTENLYFQSMEESGATFHTYLNHLIQGLQKEAKEKFKGWVTCSSTDNTDLAFKKVGDGNPLKLWKASVEVEAPPSVVLNRVLRERHLWDEDFVQWKVVETLDRQTEIYQYVLNSMAPHPSRDFVVLRTWKTDLPKGMCTLVSLSVEHEEAQLLGGVRAVVMDSQYLIEPCGSGKSRLTHICRIDLKGHSPEWYSKGFGHLCAAEVARIRNSFQPLIAEGPETKI” belongs “soluble”; to “MSLGIVIYGTRIIYPAEHKEVMVQLMNQGNRSSLMQAWIDDGDTSLPPEKIQVPFMLTPPVAKIGANSGQQVKIKIMPNKLPTNKESIFYLNVLDIPPNSPEQEGKNALKFAMQNRIKLFYRPAGIAPVNKVTFKKLLVNRSGNGLVIKNDSANWVTISDVKANNVKVNYETIMIAPLESQSVNVKSNNANNWHLTIIDDHGNYISDKEGHHHHHH”, “soluble”; to “GPGSMNRDPQNALLLEQMAQKTKRLLLQRSPSTVNGIRSFSRSLGIADDLGSTQVTAEELQHALQENNVSLEEHELQNIFTVLDRTGKGTIDPTDFIAVMCNNLGPLRKVWLRRVWRMFTKDPDDGSVQVCELQRQFIAEGHPAVVRHETTAAEVRKDFESAFNESTNPDGKISAQEFAEYYAGVSVSCSNDESFVALLRGVWPLPGVSRDFSLSLAKGEAQYQGSYHTEQSLAEKTAVASREAVRSALMRMIRCDHAPVALSSGAAARALCLSLAQADEAGSGFVSEAVFVGALRTHRLYVPNTSVLECLDTNGDGTVDIKYYEELLLPSPSAARLMLLARLWSRCFENKDAAYRVPVQDLHRKYHASSPADKDAFLTAWDVRTAVGGKVELEELVQWYVPQSAAVQRDKDFEALLHRQWGKYDE”, “soluble”.
As for “MSLGRYCTDTEWTWFIPGKSPIKTDTIFREVAINGKTGLRTCHIDENTRFEVYEFWPSDLLRIFRRAGIQRHTPPFFEPGCALSGNSGISPQITSPQAGVSYIVHANTQSNKIIPLTAVTDAGIAHLYWFINESFVAETKSDEPYLWQAKPGKYVVRVVDDRGLSDARDITIQMVSEGHHHHHH”, the entry is “soluble”; as for “MAHHHHHHMHLKIVCLSDEVREMYKNHKTHHEGDSGLDLFIVKDEVLKPKSTTFVKLGIKAIALQYKSNYYYKCEKSENKKKDDDKSNIVNTSFLLFPRSSISKTPLRLANSIGLIDAGYRGEIIAALDNTSDQEYHIKKNDKLVQLVSFTGEPLSFELVEELDETSRGEGGFGSTSNNKY”, “soluble”; as for “MNESIYTTPQSSKTPKSKSARYSSPYQVIDLNNESQEDLKTRLLEAENIIQDLRSERDALHESLVDKAGLNESVIIERSNKVSTQETRIYRRDVTLLEDDLKQKESQIRILQNRCLRLETEKQKMQDTISGYQEDLKENEIRIENLNSRLHKLEDELSAKTHEIFSIGEELKNKTMKLNEKNSQFQTKLAEISSENRNLERKVQKFREELIVKDQRSLEVHQDQENTQKVLKEVKQLSDRLDYLTPKRKDVSRIKERDDFLQFSAKIIEETMSELKLKNARLERELSEKEELVKVTKEELQELQKTVTQAMGDSEQATKYLHAENMKLTRQKADIRCDLLEARRNLKGFDEKREELEKQRDEALEDVRRITELKKNVEIELRSLKLLAEEREEQIDELKSRVAGYEVLRRDHEAVKNELAKAEEKLNKMGAHLVMADKQSSHFKTLKETAEGSRRRAIEQCNEMVARIRGLEASLENQRKVEQELEMVKAENVRQAKKIEFMKEEIQETHLDYREELSKLAKGGGSHEADSQRDSELRSAKKTIQEVKADNKKLQQILEEVRQNQSKVLEENVKLRKGMAEAIEKIEEFKRNWHSSREAGERLQLEAKENEEKVLKVEEELQEKRLEVLEKEELVNYLQSQINTKQTKQPKLSRRSTLMSTISEVDTSTYVREVEEVRALEEQREELQAYLAEKRKMADLQKSRSTANTTTLITSTTATEVSKSACELSYPPATMRHDIPHKWLEFRHYSVLSMKCSLCFVGITFFTKANKCSHCDVRVHASCAPRVNNTCGIPAQCATYYQDAQAVGGIGRMNGWLRVYRDDLPESTWTSLWAMMDSNHVKFYRDAGADNLENPYFTIDLNKEQWILRTGQEVAIPGDVMRNVLTIKLQTRSVHIVAPTPKSAERWAACLQNAQTRRMMKNSKPSSIAEYSCLLTLSLPNNLKIFKAHTIEDWILFATQTGLFFTSISQPRNPTRIAGPSSVTSLEVMSEINCVAMITNSNRQLALIPLDSLTLAMQSTHPSIRAEVLPEFGHVHTIRYHQQDGQRFLLVSDDTQLHIRKYNSTRDVFAHFAKLVVPEPVSFIESTPAGFIFASDTFYYVPLDHQSPSDVSARKLMPPRRSDYPVSAHAITANEILLAYQNHGIFVNLYGEQSRNQIIEWEKMPIEFAYTSPLLYIVHDDSIEIVQISKSSKETVLAEREVIACVNAHIVQSDGVLISVSSKDITEVHRFSATCRGTGTKRRGISPFNTLKRSKN”, “not soluble”.
